# Measurements reported in patent US20160130329.
# T1: H3K9me2 peptide
# T1 chain: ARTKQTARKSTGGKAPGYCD
# Biological target: T1, H3K9me2 peptide
protein,measurement,value
SUV39H1 (protein) EVEYLCDYKKIREQEYYLVKWRGYPDSESTWEPRQNLKCVRILKQFHKDLERELLRRHHRSKTPRHLDPSLANYLVQKAKQRRALRRWEQELNAKRSHLGRITVENEVDLDGPPRAFVYINEYRVGEGITLNQVAVGCECQDCLWAPTGGCCPGASLHKFAYNDQGQVRLRAGLPIYECNSRCRCGYDCPNRVVQKGIRYDLCIFRTDDGRGWGVRTLEKIRKNSFVMEYVGEIITSEEAERRGQIYDRQGATYLFDLDYVEDVYTVDAAYYGNISHFVNHSCDPNLQVYNVFIDNLDERLPRIAFFATRTIRAGEELTFDYNMQVDPVDMESTRMDSNFGLAGLPGSPKKRVRIECKCGTESCRKYLF,histone methyltransferase activity (H3K9me3 product detected by ELISA with 309M3-A),"activity of the HMT SUV39H1 and its inhibition by an HMT inhibitor, chaetocin (Greiner et al., 2005), were clearly observed with 309M3-A"
